One substance from publication PMC10469194 can be followed below.

In the assay the target is REGN10987-based FabH3 heavy chain (VH - GS-G4 linker - IgG1 CH3 K392D, K409D). In words: pull-down; co-purification from the soluble E. coli lysate by cobalt IMAC on the His6 tag of the heavy chain, native conditions; SDS-PAGE.
Chain of REGN10987-based FabH3 heavy chain (VH - GS-G4 linker - IgG1 CH3 K392D, K409D) (heavy, as listed by the source): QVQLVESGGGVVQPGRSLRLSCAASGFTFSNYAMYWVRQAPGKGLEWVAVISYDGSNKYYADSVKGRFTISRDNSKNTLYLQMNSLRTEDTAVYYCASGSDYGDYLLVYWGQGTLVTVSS

Broadly, the stoichiometry N is the number of molecules, sites or subunits per partner or assembly. “REGN10987-based FabH3 light chain (VL - GS-G4 linker - IgG1 CH3 E356K, D399K)” yielded a stoichiometry N of 1.
